According to patent publication US20240148828A1 (published 2024):

Target: T1, CD19 expressed on cells (Daudi, Raji, K562-CD19) (human, UniProt P15391 20-556)
T1 chain: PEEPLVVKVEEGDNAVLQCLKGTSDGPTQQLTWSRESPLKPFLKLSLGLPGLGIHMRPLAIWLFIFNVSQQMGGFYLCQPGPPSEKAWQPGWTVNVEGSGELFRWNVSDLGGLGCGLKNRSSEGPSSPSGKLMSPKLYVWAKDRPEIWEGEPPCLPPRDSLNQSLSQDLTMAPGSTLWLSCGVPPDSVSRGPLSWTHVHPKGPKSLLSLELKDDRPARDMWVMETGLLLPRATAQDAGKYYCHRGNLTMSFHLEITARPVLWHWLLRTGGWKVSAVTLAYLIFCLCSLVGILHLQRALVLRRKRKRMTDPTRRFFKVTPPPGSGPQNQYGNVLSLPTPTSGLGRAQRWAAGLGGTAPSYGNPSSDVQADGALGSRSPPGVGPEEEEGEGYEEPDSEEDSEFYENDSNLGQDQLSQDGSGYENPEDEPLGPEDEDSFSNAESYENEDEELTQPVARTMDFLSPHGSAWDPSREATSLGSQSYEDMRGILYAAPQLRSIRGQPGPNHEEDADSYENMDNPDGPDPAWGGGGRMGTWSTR
Test: flow cytometry cell binding

B1: BTN2A1/3A1-Fc-CD19scFv heterodimeric protein (Fc fusion)
chain 1: QFIVVGPTDPILATVGENTTLRCHLSPEKNAEDMEVRWFRSQFSPAVFVYKGGRERTEEQMEEYRGRTTFVSKDISRGSVALVIHNITAQENGTYRCYFQEGRSYDEAILHLVVAGLGSKPLISMRGHEDGGIRLECISRGWYPKPLTVWRDPYGGVAPALKEVSMPDADGLFMVTTAVIIRDKSVRNMSCSINNTLLGQKKESVIFIPESFMPSVSPCAGSGSRKGGKRGSKYGPPCPPCPAPEFLGGPSVFLFPPKPKDQLMISRTPEVTCVVVDVSQEDPEVQFNWYVDGVEVHNAKTKPREEQFNSTYRVVSVLTVLHQDWLSGKEYKCKVSSKGLPSSIEKTISNATGQPREPQVYTLPPSQEEMTKNQVSLTCLVKGFYPSDIAVEWESNGQPENNYKTTPPVLDSDGSFFLYSRLTVDKSRWQEGNVFSCSVLHEALHNHYTQKSLSLSLGKDEGGEDGSDIQMTQTTSSLSASLGDRVTISCRASQDISKYLNWYQQKPDGTVKLLIYHTSRLHSGVPSRFSGSGSGTDYSLTISNLEQEDIATYFCQQGNTLPYTFGGGTKLEITGGGSGGGSGGGSEVKLQESGPGLVAPSQSLSVTCTVSGVSLPDYGVSWIRQPPRKGLEWLGVIWGSETTYYNSALKSRLTIIKDNSKSQVFLKMNSLQTDDTAIYYCAKHYYYGGSYAMDYWGQGTSVTVSS
chain 2: not shown
  EC50: 5 nM
